Laboratory results published in patent US6916645B2, “Amylases” (Kao Corporation, priority 1998, dated 2005).

B1: K38: purified liquefying alkaline amylase obtained from strain Bacillus sp. KSM-K38 (FERM BP-6946); SEQ ID NO:4 (protein, listed as Bacillus sp.)
chain: MRRWVVAMLAVLFLFPSVVVADGLNGTMMQYYEWHLENDGQHWNRLHDDAAALSDAGITAIWIPPAYKGNSQADVGYGAYDLYDLGEFNQKGTVRTKYGTKAQLERAIGSLKSNDINVYGDVVMNHKMGADFTEAVQAVQVNPTNRWQDISGAYTIDAWTGFDFSGRNNAYSDFKWRWFHFNGVDWDQRYQENHIFRFANTNWNWRVDEENGNYDYLLGSNIDFSHPEVQDELKDWGSWFTDELDLDGYRLDAIKHIPFWYTSDWVRHQRNEADQDLFVVGEYWKDDVGALEFYLDEMNWEMSLFDVPLNYNFYRASQQGGSYDMRNILRGSLVEAHPMHAVTFVDNHDTQPGESLESWVADWFKPLAYATILTREGGYPNVFYGDYYGIPNDNISAKKDMIDELLDARQNYAYGTQHDYFDHWDVVGWTREGSSSRPNSGLATIMSNGPGGSKWMYVGRQNAGQTWTDLTGNNGASVTINGDGWGEFFTNGGSVSVYVNQ
B2: Duramyl: amylase derived from Bacillus licheniformis, purified from a Novo product in granular form (protein, UniProt P06278 30-512, looked up)
Alpha-amylase: ANLNGTLMQYFEWYMPNDGQHWKRLQNDSAYLAEHGITAVWIPPAYKGTSQADVGYGAYDLYDLGEFHQKGTVRTKYGTKGELQSAIKSLHSRDINVYGDVVINHKGGADATEDVTAVEVDPADRNRVISGEHRIKAWTHFHFPGRGSTYSDFKWHWYHFDGTDWDESRKLNRIYKFQGKAWDWEVSNENGNYDYLMYADIDYDHPDVAAEIKRWGTWYANELQLDGFRLDAVKHIKFSFLRDWVNHVREKTGKEMFTVAEYWQNDLGALENYLNKTNFNHSVFDVPLHYQFHAASTQGGGYDMRKLLNSTVVSKHPLKAVTFVDNHDTQPGQSLESTVQTWFKPLAYAFILTRESGYPQVFYGDMYGTKGDSQREIPALKHKIEPILKARKQYAYGAQHDYFDHHDIVGWTREGDSSVANSGLAALITDGPGGAKRMYVGRQNAGETWHDITGNRSEPVVINSEGWGEFHVNGGSVSIYVQR
B3: K36: purified liquefying alkaline amylase obtained from strain Bacillus sp. KSM-K36 (FERM BP-6945); SEQ ID NO:2 (protein, listed as Bacillus sp.)
chain: MKRWVVAMLAVLFLFPSVVVADGLNGTMMQYYEWHLENDGQHWNRLHDDAEALSNAGITAIWIPPAYKGNSQADVGYGAYDLYDLGEFNQKGTVRTKYGTKAQLERAIGSLKSNDINVYGDVVMNHKLGADFTEAVQAVQVNPSNRWQDISGVYTIDAWTGFDFPGRNNAYSDFKWRWFHFNGVDWDQRYQENHLFRFANTNWNWRVDEENGNYDYLLGSNIDFSHPEVQEELKDWGSWFTDELDLDGYRLDAIKHIPFWYTSDWVRHQRSEADQDLFVVGEYWKDDVGALEFYLDEMNWEMSLFDVPLNYNFYRASKQGGSYDMRNILRGSLVEAHPIHAVTFVDNHDTQPGESLESWVADWFKPLAYATILTREGGYPNVFYGDYYGIPNDNISAKKDMIDELLDARQNYAYGTQHDYFDHWDIVGWTREGTSSRPNSGLATIMSNGPGGSKWMYVGQQHAGQTWTDLTGNHAASVTINGDGWGEFFTNGGSVSVYVNQ

Key:
[1] = Effects of metal salts (inhibition ratio); format: biochemical; conditions: pH 10, 30° C., 30 minutes; for inhibition ratio by Mn2+: 1 mM Mn2+
Procedure: Each of them was treated at pH 10 and 30° C. for 30 minutes in the presence of various metal salts, whereby their effects were studied.

[2] = Resisting performance against citric acid or zeolite (residual enzyme activity); format: physicochemical; conditions: 0 to 0.5% trisodium citrate or synthetic zeolite A-3, pH 10, 40 or 45° C., 30 minutes; FIGS. 3 to 6
Procedure: To a 50 mM glycine sodium hydroxide buffer (pH 10) containing trisodium citrate dihydrate (guaranteed class product of Wako Pure Chemical Industries, Ltd.) or synthetic zeolite A-3 (product of Wako Pure Chemical Industries, Ltd.) having each of final concentrations of 0 to 0.5%, a purified enzyme properly diluted with a 10 mM glycine sodium hydroxide buffer (pH 10) was added, followed by treatment at each of predetermined temperatures (40° C. and 45° C.) for 30 minutes. The residual enzyme activity of the reaction mixture was measured in accordance with the amylase activity measuring method [with a 50 mM glycine sodium hydroxide buffer (pH 10)].

[3] = Specific activity: amylase activity measuring method and protein assay kit; format: biochemical; conditions: pH 10 glycine sodium hydroxide buffer, 50° C., 15 minutes, soluble starch as substrate
Procedure: In a test tube, 0.5 mL of the 1% aqueous solution of soluble starch, 0.2 mL of the 250 mM glycine sodium hydroxide buffer (pH 10) and 0.2 mL of deionized water (said mixture will hereinafter be called “substrate solution”) were charged, followed by preliminary heating for about 5 minutes in a water bath of 50° C. After preliminary heating, 0.1 ml of a properly diluted enzyme solution was added to the reaction mixture, followed by reaction at 50° C. for 15 minutes. After completion of the reaction, 1.0 mL of the DNS reagent was added to the reaction mixture, followed by color development by heating in boiling water for 5 minutes. Immediately after that, the solution was allowed to cool down in an ice-water bath. The resulting solution, after cooling, was added with 4.0 mL of deionized water, followed by mixing. The absorbance of the solution at 535 nm was then measured.
In a test tube, 0.9 mL of the substrate solution was charged, followed by the addition of 1.0 mL of the DNS reagent and then with 0.1 mL of an enzyme solution. The resulting mixture was heated in a boiling water for 5 minutes to cause color development. […] The absorbance of the solution at 535 nm was then measured.
In a test tube, 0.9 mL of the substrate solution was charged, followed by the addition of 1.0 mL of the DNS reagent and then with 0.1 mL of each of the glucose solutions for a calibration curve having various concentrations. […] The absorbance of the solution at 535 nm was then measured. On a graph, the glucose concentration (μmol/0.1 mL) was plotted as abscissa and the absorbance as ordinate and the slope of those linear plots was determined by the least square method. A conversion factor (F) was calculated in accordance with the following formula: Conversion Factor (F)=[1/(slope)]×[1/15]×[1000/0.1]
With the amount of the enzyme which formed reducing sugar equivalent to 1 μmol of glucose in one minute was defined as one unit (1U), the titer of the enzyme was calculated in accordance with the following formula: Activity of amylase (U/L)=[δ-absorbance]×[conversion factor (F)]×[dilution ratio] […]

[4] = EDTA or EGTA resisting performance (residual enzyme activity); format: physicochemical; conditions: 0 to 100 mM EDTA or EGTA, pH 10, 30, 40 or 45° C., 30 minutes; FIGS. 1 and 2
Procedure: (§1) After 9.3 g of EDTA (product of Sigma Chemical Co., Ltd.) was dissolved in about 80 mL of deionized water, the resulting solution was adjusted to pH 8 with an about SN aqueous sodium hydroxide solution by using a pH meter. To the pH-adjusted solution, deionized water was added to give a total volume of 100 mL, whereby a 250 mM EDTA solution was prepared. The resulting solution was diluted with deionized water to prepare 10 to 100 mM EDTA solutions.
as §1, with “9.5” for “9.3”, “EGTA” for “EDTA”, “5N” for “SN”
In a test tube, 0.1 mL of the 10 mM EDTA solution, 0.2 mL of the 250 mM glycine sodium hydroxide buffer (pH 10) and 0.1 mL of deionized water were charged, followed by preliminary heating in a water bath of 45° C. for about 5 minutes. […] Thirty minutes later, a 0.1 mL portion of the resulting solution was added to 0.9 mL of the substrate solution preliminary heated in a water bath of 50° C. and the residual enzyme activity was measured in accordance with the amylase activity measuring method. […]

Row | Molecule | inhibition ratio by Cd2+ (K38 sentence) ([1]; 1 mM Cd2+) | inhibition ratio by Mn2+ [1] | inhibition ratio by Sr2+ ([1]; 1 mM Sr2+) | resisting performance against citric acid or zeolite (residual activity) [2] | Specific activity [3] | resisting performance against EDTA or EGTA (residual activity) [4]
1 | B1 | about 30% | about 75% | about 30% | influenced by neither citric acid nor zeolite | 3600 U/mg | not influenced by highly concentrated EDTA or EGTA
2 | B2 | – | – | – | – | 500 U/mg | –
3 | B3 | – | about 95% | – | influenced by neither citric acid nor zeolite | 4300 U/mg | not influenced by highly concentrated EDTA or EGTA
